“Also recorded” adds a separate entry of the source.
B1: QYD53: AAD-like enzyme, SEQ ID NO. 105 (protein)
chain: MASTLSLQPLEGITFGAVATGFRIAELDEPTWQALHDAWLDHALLIFPGQFLTRDEQIAFARRFGPLEFEMAAISNVKPDGTLRLEKDNDDMMKVLKGNMGWHADSTYMPVQAKGAVFSAEVVPTIGGETGWADMRAAYEALDAATREKIDGLSAFHSLHYSQSKLGHQTQKSDGQYNGYGLHDGPVPLRPLVKTHPETGRKSLLIGRHAHNIPGMDKAESERFLDGLIAFACQPPRVYHHHWAPGDVVVWDNRCLLHQATPWDMTQPRVMWHSRIAGDPASEAGLAA
modifications: Synthetic polypeptide, QYD53, D53
B2: QYD55: AAD-like enzyme, SEQ ID NO. 109 (protein)
chain: MARPFDIEPLDATFGAVVRGVKVAALDDVTWRALHDAWLQYALLIFPGQHLSREAQIAFAKRFGPLEFEMAPISNVRADGSVRAEAENDDVIKVLKGNMGWHCDSTYMPVQAKGAVFSAEVVPGAGGQTGWADMRAAYDALDGDLRARIENLSAYHSLYYSQAKLDHRPSKSSAYSGYGFHDGPVPLRPLVKVHPETGRKSLLIGRHAHNIPGMDADESTRLLQSLVDFACRPPRIYHHHWTAGDTVVWDNRCLLHQATPWDMTQPRVMWHSRIAGDPASEAALA
modifications: Synthetic polypeptide, QYD55, D55
B3: QYD30: AAD-like enzyme, SEQ ID NO. 59 (protein)
chain: MALSLTPLTPGFVAEASGLDLTRPLDAAAVRTIEQAMDDYAVLVFRNQPLDQDQQIRFAQGFGPLDLGLRKVKGGAHRFDHAELADISNVTVDGSVAGRDHAKIVGNIANQLWHSDSSFQRPRAKYSMLSAVVVPQDGGQTEFADLRAAYDHLPDGMKAAIGDLQAVHYALHSRFLLGDTEYTQAQRDALPAVRWPLVQTDPRSGRKILFVGIHACEVVGMTVAEGRMLLLDLLEHATQREFVYRHHWRVGDLVMWDNTATLHRGRRFDLAQRRELRRATTEEVRLSAEARAAA
modifications: Synthetic polypeptide, QYD30, D30
B4: QYD57: AAD-like enzyme, SEQ ID NO. 113 (protein)
chain: MPQHFDVAPVDATFGAVVTNLKLANLDEPAFRELYATWLEHALLIFPGQFLTREQQIAFARRFGALEFEMAAISNVKSDGTLRREADNDDVVKILKGNMGWHADSTYMPLQAKGAVFSAKVVPSARGETGWADMRAAYDALDAAVRDRVERLSAYHSLHYSQAKAGFQHKDKKSEYSGYGLHDGPVPLRPLVKTHPETGRKSLLIGRHAHNIPGMEPEESERLLDGLVEFACQAPRTYHHSWKPGEAVIWDNRCLLHRAMPWDMTEPRIMWHSRIAGDPASEAAIN
modifications: Synthetic polypeptide, QYD57, D57
B5: QYD58: AAD-like enzyme, SEQ ID NO. 115 (protein)
chain: MARTFDIEPLAGTTFGAVVRGMKVAILDDAGWRDLYAAWLKYALLVFPGQHLKRDEQIAFAKRFGALEFEMAALSNVKSDGTLRQEKDNDDMMKILKGNMGWHADSTYMPVQAKGAVFSAEIVPGAGGQTGFADMRAAYDALDAGRKAKVERLAAHHSLHYSQSKLGHQTKKQDGEYSGYGLHDGPVPLRPLVKTHPETGRKSLLIGRHAHNIPGMDKAESERLLQELVDFACQPPRVYHHDWTAGDAVVWDNRCLLHQATPWDMTQPRVMWHSRIAGDPRSEAALGVTAVSAAASG
modifications: Synthetic polypeptide, QYD58, D58
B6: QYD51: AAD-like enzyme, SEQ ID NO. 101 (protein)
chain: MARTLDIEPIDATFGAVVRGIKVAEVDDETFRALYDAWLEYALLIFPDQHLKRDQQIAFAKRFGPLEFEMTAISNVRSDGTLRLEKDNDDVMKVLKGNMGWHHDSTYMPVQAKGAVFSAEEVPTIGGRTGFADMRAAYDALDPAMKARIEGLNAYHSLHYSQGRVGHQTKKSDGEYSGYGLHDGPVPLRPLVKTHPETGRKSLLAGRHAHNIPGLAQEESDRLLRELIDFACQPPRIYHHDWTPGEAVVWDNRCLMHQATPWDMTQRRIMWHSRIAGDPASESARPQP
modifications: Synthetic polypeptide, QYD51, D51
B7: QYD52: AAD-like enzyme, SEQ ID NO. 103 (protein)
chain: MTRTLDIEPIDATFGAVVRGIKVAEVDDETFRALYDAWLQYALLIFPDQHLQRDQQIAFAKRFGPLEFEMTAISNVRSDGTLRLEKDNDDVMKILKGNMGWHHDSTYMPVQAKGAVFSAEEVPTIGGRTGFADMRAAYDALDPAMKARIEGLNAYHSLHYSQGKVGHQTRKADGEYSGYGLHDGPVPLRPLVKTHPETGRKSLLAGRHAHNIPGLSQEASDSLLRELIDFACQPPRIYHHDWTPGDAVVWDNRCLMHQATPWDMTQRRIMWHSRIAGDPASESSLAA
modifications: Synthetic polypeptide, QYD52, D52
B8: QYD56: AAD-like enzyme, SEQ ID NO. 111 (protein)
chain: MARTFDVQPLDATFGAVISGVKLAALDDETWRELYATWLQYALLVFPGQHLSRDQQIAFARRFGPLEFEIIALSNVKSDGTIRSEVENDDVIKVLKGNMGWHADSTYMPVQAKGAVFTAEVVPSVGGQTGWADMRAAYDALDGATRQKVEQLSAYHSLHYSQSKLGHQHKPGSAYSGYGFHDGPVPLRPLVKTHPETGRKSLLIGRHAHNIPGMDKDESARFLEDLVASACQPPRIYHHTWAAGDAVVWDNRCLLHQATPWDMTQPRVMWHSRIAGDPLSEAALG
modifications: Synthetic polypeptide, QYD56, D56

Assays:
[1] = assay type: cell-based, Escherichia coli
Arabidopsis thaliana [2] = assay: Herbicide resistance of transgenic Arabidopsis thaliana seedlings on plate medium (root growth); assay type: in vivo; settings: Arabidopsis overexpressing the gene
How it was run: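 After 3 days of cold treatment at 4 °C, seeds were cultured at 22 °C under a 16 h/8 h light cycle on MS herbicide medium (0.3 μM 2,4-D in the screen). Root growth was scored against wild-type seedlings at one week. The material was T2 AAD-overexpressing lines (AtUbi10 promoter, MAS terminator, hygromycin marker), two events each, tested with 2,4-D, 2,4-DB sodium and MCPA.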

Arabidopsis thaliana [3] = assay: as above; assay type: in vivo; settings: plate medium with 2,4-D (0.3 μmol)
[4] = Chromogenic reaction of degrading herbicides in bacteria: 2,4-D; assay type: cell-based, Escherichia coli; settings: recombinant E. coli expressing the gene, 2,4-D added to the medium, red = phenols
How it was run: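 Colour from 2,4-D degradation was detected at A510 after 5 min at room temperature, with 4-aminoantipyrine and ferricyanide added to culture supernatant in pH 10 borate. Cultures were AAD12-expressing or empty-vector (pET15b) BL21(DE3), grown overnight at 28 °C with 0.5 mM 2,4-D, 0.1 mM IPTG and 2 mM α-ketoglutarate.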

[5] = Chromogenic reaction of degrading herbicides in bacteria: triclopyr; assay type: cell-based, Escherichia coli; settings: recombinant E. coli expressing the gene
Procedure: To transform the plasmids to be tested, an AAD12-expressing plasmid and a blank control plasmid pET15b were respectively transformed into the protein expression E. coli BL21(DE3) strains. A monoclone was selected and inoculated in a 10 ml centrifuge tube with 3 ml LB medium, and cultivated at 37° C., 200 rpm for 6-8 hours. […] The temperature was switched to 28° C. and the cultivation continued overnight. In the next morning, 200 μL of each bacteria solution was taken and centrifuged to precipitate thallus, 180 μL of the supernatant was taken and added in a 96-well plate, and 20 μL of borate buffer of pH 10 was added. Then the mixture was added with 2 μL of 8% potassium ferricyanide and mixed well, followed by adding 2 μL of 2% 4-aminoantipyrine, and placed at room temperature for 5 min to observe the color and detect the A510 value. […]

Row | Molecule | Chromogenic reaction of degrading herbicides in bacteria: MCPA [1] | Resistance of transgenic Arabidopsis thaliana: 2,4-D (Arabidopsis thaliana [2]) | Resistance of transgenic Arabidopsis thaliana: MCPA (Arabidopsis thaliana [2]) | 2,4-D resistance of T1 generation transgenic seedlings (seminal root growth) (Arabidopsis thaliana [3]) | Chromogenic reaction of degrading herbicides in bacteria: 2,4-D [4] | other results
1 | B1 | Yes | Yes | Yes | showing tolerance to 2,4-D | Yes | Chromogenic reaction of degrading herbicides in bacteria: 2,4-D ([4]; listed as D53): could degrade 2,4-D; also recorded: capable of degrading 2,4-D
2 | B2 | Yes | Yes | – | showing tolerance to 2,4-D | Yes | Chromogenic reaction of degrading herbicides in bacteria: 2,4-D ([4]; listed as D55): could degrade 2,4-D; also recorded: capable of degrading 2,4-D
3 | B3 | Yes | Yes | – | – | Yes | Chromogenic reaction of degrading herbicides in bacteria: Triclopyr [5]: Yes; Chromogenic reaction of degrading herbicides in bacteria: Triclopyr ([5]; listed as D30): slight degradation; Chromogenic reaction of degrading herbicides in bacteria: 2,4-D ([4]; listed as D30): could degrade 2,4-D; also recorded: capable of degrading 2,4-D
4 | B4 | Yes | Yes | Yes | showing tolerance to 2,4-D | Yes | Chromogenic reaction of degrading herbicides in bacteria: 2,4-D ([4]; listed as D57): could degrade 2,4-D; also recorded: capable of degrading 2,4-D
5 | B5 | Yes | – | – | – | Yes | Chromogenic reaction of degrading herbicides in bacteria: Triclopyr [5]: Yes; Chromogenic reaction of degrading herbicides in bacteria: Triclopyr ([5]; listed as D58): slight degradation; Chromogenic reaction of degrading herbicides in bacteria: 2,4-D ([4]; listed as D58): could degrade 2,4-D; also recorded: capable of degrading 2,4-D
6 | B6 | Yes | Yes | Yes | showing tolerance to 2,4-D | Yes | Chromogenic reaction of degrading herbicides in bacteria: 2,4-D ([4]; listed as D51): could degrade 2,4-D; also recorded: capable of degrading 2,4-D
7 | B7 | Yes | Yes | – | showing tolerance to 2,4-D | Yes | Chromogenic reaction of degrading herbicides in bacteria: 2,4-D ([4]; listed as D52): could degrade 2,4-D; also recorded: capable of degrading 2,4-D
8 | B8 | Yes | Yes | – | showing tolerance to 2,4-D | – | Chromogenic reaction of degrading herbicides in bacteria: 2,4-D ([4]; listed as D56): could degrade 2,4-D; also recorded: capable of degrading 2,4-D

Source: patent US20240043859A1, “HERBICIDE-RESISTANT PROTEIN, AND GENE AND USE THEREOF” (QINGDAO KINGAGROOT CHEMICAL COMPOUND CO., LTD., priority 2020, published 2024)
